The results in this text go back to patent publication US9988424 (DUKE UNIVERSITY, dated 2018).

Where two headings read alike, the source gives them in different places.

Experiment [1] concerns the target T1, AE.A244 V1/V2 Tags N156QN160Q (HIV-1).
T1 chain: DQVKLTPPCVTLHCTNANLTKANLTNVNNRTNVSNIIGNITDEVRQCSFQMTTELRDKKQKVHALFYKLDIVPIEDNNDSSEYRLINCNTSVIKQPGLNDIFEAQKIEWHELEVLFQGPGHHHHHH
Kind of experiment: ELISA; markers as in the legend printed on D00157. For orientation: ELISA stands for enzyme-linked immunosorbent assay.

Experiment [2] addresses Env of 92TH023 K169Q virus (HIV-1). Kind of experiment: cell-based or functional assay.
The target in experiment [3] is Env of CM244NW.6.I181L virus (HIV-1). Kind of experiment: cell-based or functional assay.
The target of experiment [4] is Env of CM244NW.4.K169Q virus (HIV-1). Kind of experiment: cell-based or functional assay.
The target in experiment [5] is Env of AE.CM244 virus (HIV-1). Kind of experiment: cell-based or functional assay.
Experiment [6] addresses Env of 703357.2.Q169K virus (HIV-1). Kind of experiment: cell-based or functional assay.
Experiment [7] concerns the target Env of 427299.c12 virus (HIV-1). Kind of experiment: cell-based or functional assay.
For experiment [8], the target named is Env of 703357.2.I181L virus (HIV-1). Kind of experiment: cell-based or functional assay.
For experiment [9], the target named is Env of 703357.c02 virus (HIV-1). Kind of experiment: cell-based or functional assay.
In experiment [10] the target is Env of 427299.c12.Q169K virus (HIV-1). Kind of experiment: cell-based or functional assay.
In experiment [11] the target is Env of AE.92TH023 virus (HIV-1). Kind of experiment: cell-based or functional assay.
In experiment [12] the target is Env of TH023.6.I181L virus (HIV-1). Kind of experiment: cell-based or functional assay.
Experiment [13] deals with Env of 703357.2.Q169KR170Q virus (HIV-1). Kind of experiment: cell-based or functional assay.
For experiment [14], the target named is Env of 703357.2.Q169KI181L virus (HIV-1). Kind of experiment: cell-based or functional assay.
Experiment [15] concerns the target Env of 703357.2.Q169KR170QI181L virus (HIV-1). Kind of experiment: cell-based or functional assay.
Experiment [16] concerns the target Env of 427299.c12.KL.Q169K/I181L virus (HIV-1). Kind of experiment: cell-based or functional assay.
Experiment [17] deals with Env of 427299.c12.H81L virus (HIV-1). Kind of experiment: cell-based or functional assay.
The target in experiment [18] is AE.A244 V1V2 Tags (HIV-1). Kind of experiment: ELISA.
Experiment [19] concerns the target C.1086 V1V2 Tags (HIV-1). Kind of experiment: ELISA.
The target in experiment [20] is T2, gp70 C.1086 V1/V2 (HIV-1 V1V2 on murine leukemia virus gp70).
T2 construct: also called C.gp70 1086C V1V2; C.1086gp70V1V2
T2 chain: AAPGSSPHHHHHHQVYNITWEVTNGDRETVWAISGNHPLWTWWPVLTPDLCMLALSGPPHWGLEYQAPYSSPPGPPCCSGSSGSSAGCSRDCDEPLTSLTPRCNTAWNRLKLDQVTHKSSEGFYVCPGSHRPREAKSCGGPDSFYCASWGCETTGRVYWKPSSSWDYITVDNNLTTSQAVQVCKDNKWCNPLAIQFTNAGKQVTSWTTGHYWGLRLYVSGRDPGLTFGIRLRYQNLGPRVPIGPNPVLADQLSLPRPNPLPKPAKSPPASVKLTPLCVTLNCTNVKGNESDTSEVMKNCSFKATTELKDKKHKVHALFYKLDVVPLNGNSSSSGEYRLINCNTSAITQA
Kind of experiment: ELISA.

The target of experiment [21] is T3, AE.A244 gp120 delta 11 (HIV-1).
T3 construct: also called E.A244gp120Δ11; AE.A244 Δ11 gp120
Kind of experiment: ELISA.

Experiment [22] addresses AE.A244 V1V2 Tags (HIV-1). Kind of experiment: ELISA. This is another data set of the same source.
The target of experiment [23] is C.1086 V1V2 Tags (HIV-1). Kind of experiment: ELISA. This is another data set of the same source.
Experiment [24] addresses T2, gp70 C.1086 V1/V2. Kind of experiment: ELISA.
Experiment [25] has as its target T3, AE.A244 gp120 delta 11. Kind of experiment: ELISA. This is another data set of the same source.
In experiment [26] the target is C.CAP206 gp140CF.12 (HIV-1). Kind of experiment: ELISA.
Experiment [27] has as its target T4, gp70 B.CaseA2 V1/V2/V169K/E172V/E173H (HIV-1 V1V2 on murine leukemia virus gp70).
T4 construct: also called gp70 B.CaseA2 V1/V2 Mut3
T4 chain: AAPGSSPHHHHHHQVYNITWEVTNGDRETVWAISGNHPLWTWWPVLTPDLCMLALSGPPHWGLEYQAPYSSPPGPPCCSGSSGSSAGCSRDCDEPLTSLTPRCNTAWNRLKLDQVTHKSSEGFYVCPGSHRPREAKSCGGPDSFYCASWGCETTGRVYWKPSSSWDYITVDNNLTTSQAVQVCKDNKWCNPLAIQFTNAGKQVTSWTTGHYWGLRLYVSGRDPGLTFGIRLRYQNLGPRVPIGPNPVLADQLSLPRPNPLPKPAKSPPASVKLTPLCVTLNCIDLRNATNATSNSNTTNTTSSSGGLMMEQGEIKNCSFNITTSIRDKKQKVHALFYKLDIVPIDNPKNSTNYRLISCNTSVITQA
Kind of experiment: ELISA.

Experiment [28] concerns the target AE.A244 V1V2 Tags (HIV-1). Kind of experiment: ELISA. The source holds these as a separate data set.

B1: CH59 reverted unmutated ancestor antibody (antibody, V domains shown)
VH: EVQLVESGGGLVQPGRSLRLSCAASGFTFDDYAMHWVRQAPGKGLEWVSGISWNSGSIGYADSVKGRFTISRDNAKNSLYLQMNSLRAEDTALYYCAKDSPRGELPFDYWGQGTLVTVSS
VL: SYELTQPPSVSVSPGQTARITCSGDALPKKYAYWYQQKSGQAPVLVIYEDSKRPSGIPERFSGSSSGTMATLTISGAQVEDEADYYCYSTDSSGNHRVFGGGTKLTVL
notes: also called CH59 RUA; CH59_RUA
A word on the EC50 (read off the curve): it is the midpoint of the concentration-response curve. Read a low EC50 (read off the curve) as an effect from little substance. By EC50 is commonly meant the concentration that produces a half-maximal response. For the molecule B1, the concentration giving a half-maximal response (EC50 (read off the curve)) in experiment [1] was around 0.4 mg/L. The “ID50 assayed in TZM-bl cells, TH023.6.K169Q” value in [2] is above 50 mg/L. Moreover, the “ID50 assayed in TZM-bl cells, CM244NW.6.I181L” value in [3] was above 50 mg/L. In addition, in [4], the “ID50 assayed in TZM-bl cells, CM244NW.4.K169Q” value is above 50 mg/L. Further, the “ID50 assayed in TZM-bl cells, CM244.ec1” value in experiment [5] is above 50 mg/L. The “ID50 assayed in TZM-bl cells, 703357.2.Q169K” value in experiment [6] was above 50 mg/L. The “ID50 assayed in TZM-bl cells, 427299.c12” value in experiment [7] is above 50 mg/L. For the same molecule, the “ID50 assayed in TZM-bl cells, 703357.2.I181L” value in [8] is above 50 mg/L. The “ID50 assayed in TZM-bl cells, 703357.c02” value in [9] is above 50 mg/L. Also, in experiment [10], the “ID50 assayed in TZM-bl cells, 427299.c12.Q169K” value was above 50 mg/L. In addition, the “ID50 assayed in TZM-bl cells, TH023.6” value in [11] is above 50 mg/L. Further, the “ID50 assayed in TZM-bl cells, TH023.6.I181L” value in experiment [12] was above 50 mg/L. Besides, the “ID50 assayed in TZM-bl cells, 703357.2.Q169KR170Q” value in experiment [13] is above 50 mg/L. The “ID50 assayed in TZM-bl cells, 703357.2.Q169KI181L” value in experiment [14] was above 50 mg/L. In addition, the “ID50 assayed in TZM-bl cells, 703357.2.Q169KR170QI181L” value in [15] was above 50 mg/L. For the same molecule, the “ID50 assayed in TZM-bl cells, 427299.c12.KL.Q169K/I181L” value in experiment [16] is above 50 mg/L. In addition, the “ID50 assayed in TZM-bl cells, 427299.c12.H81L” value in experiment [17] was above 50 mg/L. The EC50 came out at 0.00013 µM in [18]; 0.0501 µM in experiment [19]; 0.0113 µM in experiment [20]; 0.0155 µM in experiment [21]; 0.00013 µM in [22]; 0.0501 µM in experiment [23]. Besides, the EC50 stood at 0.0113 µM in experiment [24] and 0.0155 µM in experiment [25].

B2: PG16 (antibody, V domains shown)
VH: QEQLVESGGGVVQPGGSLRLSCLASGFTFHKYGMHWVRQAPGKGLEWVALISDDGMRKYHSDSMWGRVTISRDNSKNTLYLQFSSLKVEDTAMFFCAREAGGPIWHDDVKYYDFNDGYYNYHYMDVWGKGTTVTVSS
VL: QSALTQPASVSGSPGQTITISCNGTSSDVGGFDSVSWYQQSPGKAPKVMVFDVSHRPSGISNRFSGSKSGNTASLTISGLHIEDEGDYFCSSLTDRSHRIFGGGTKVTVL
notes: also called mAb PG16; bnAb PG16
As for B2, the EC50 in experiment [26] worked out at 0.016 µM; in experiment [28], 0.0056 µM; in experiment [18], 0.0037 µM; in [22], 0.0037 µM. Besides, the binding result in [27] is on record as “no binding”.

B3: PG9 reverted unmutated ancestor antibody (antibody, V domains shown)
VH: QVQLVESGGGVVQPGRSLRLSCAASGFTFSSYGMHWVRQAPGKGLEWVAVISYDGSNKYYADSVKGRFTISRDNSKNTLYLQMNSLRAEDTAVYYCAREAGGPDYRNGYNYYDFWSGYYNYYYMDVWGKGTTVTVSS
VL: QSALTQPASVSGSPGQSITISCTGTSSDVGSYNLVSWYQQHPGKAPKLMIYEVSKRPSGVSNRFSGSKSGNTASLTISGLQAEDEADYYCCSLTSTRRWVFGGGTKLTVL
notes: also called PG9 RUA; PG9_RUA
Regarding B3, in experiment [1], the binding result is listed as “no binding (tested: 100 ug/ml)”.
